{"source": "patent US20100226974A1", "about": "(MITSUBISHI PHARMA, published 2010)", "binders": {"B1": {"name": "GAH antibody (human monoclonal antibody disclosed in EP-A-520499) (antibody, V domains shown)", "VH": "QVQLQESGPGLVKPSQTLSLTCTVSGGSISSCGFYWNWIRQHPGKGLEWIGYIYYSGSTYYNPSLKSRVTISLDTSKSQFSLKLSSLTAADTAVYYCARSTRLRGADYWGQGTMVTVSS", "VL": "not shown"}}, "biological_target": "T1, human non-muscular myosin heavy chain type A (human, UniProt P35579 2-1960)", "T1 construct": "also called nmMHCA; human non-muscular myosin A chain", "T1 sequence (P35579 2-1960 limits assumed)": "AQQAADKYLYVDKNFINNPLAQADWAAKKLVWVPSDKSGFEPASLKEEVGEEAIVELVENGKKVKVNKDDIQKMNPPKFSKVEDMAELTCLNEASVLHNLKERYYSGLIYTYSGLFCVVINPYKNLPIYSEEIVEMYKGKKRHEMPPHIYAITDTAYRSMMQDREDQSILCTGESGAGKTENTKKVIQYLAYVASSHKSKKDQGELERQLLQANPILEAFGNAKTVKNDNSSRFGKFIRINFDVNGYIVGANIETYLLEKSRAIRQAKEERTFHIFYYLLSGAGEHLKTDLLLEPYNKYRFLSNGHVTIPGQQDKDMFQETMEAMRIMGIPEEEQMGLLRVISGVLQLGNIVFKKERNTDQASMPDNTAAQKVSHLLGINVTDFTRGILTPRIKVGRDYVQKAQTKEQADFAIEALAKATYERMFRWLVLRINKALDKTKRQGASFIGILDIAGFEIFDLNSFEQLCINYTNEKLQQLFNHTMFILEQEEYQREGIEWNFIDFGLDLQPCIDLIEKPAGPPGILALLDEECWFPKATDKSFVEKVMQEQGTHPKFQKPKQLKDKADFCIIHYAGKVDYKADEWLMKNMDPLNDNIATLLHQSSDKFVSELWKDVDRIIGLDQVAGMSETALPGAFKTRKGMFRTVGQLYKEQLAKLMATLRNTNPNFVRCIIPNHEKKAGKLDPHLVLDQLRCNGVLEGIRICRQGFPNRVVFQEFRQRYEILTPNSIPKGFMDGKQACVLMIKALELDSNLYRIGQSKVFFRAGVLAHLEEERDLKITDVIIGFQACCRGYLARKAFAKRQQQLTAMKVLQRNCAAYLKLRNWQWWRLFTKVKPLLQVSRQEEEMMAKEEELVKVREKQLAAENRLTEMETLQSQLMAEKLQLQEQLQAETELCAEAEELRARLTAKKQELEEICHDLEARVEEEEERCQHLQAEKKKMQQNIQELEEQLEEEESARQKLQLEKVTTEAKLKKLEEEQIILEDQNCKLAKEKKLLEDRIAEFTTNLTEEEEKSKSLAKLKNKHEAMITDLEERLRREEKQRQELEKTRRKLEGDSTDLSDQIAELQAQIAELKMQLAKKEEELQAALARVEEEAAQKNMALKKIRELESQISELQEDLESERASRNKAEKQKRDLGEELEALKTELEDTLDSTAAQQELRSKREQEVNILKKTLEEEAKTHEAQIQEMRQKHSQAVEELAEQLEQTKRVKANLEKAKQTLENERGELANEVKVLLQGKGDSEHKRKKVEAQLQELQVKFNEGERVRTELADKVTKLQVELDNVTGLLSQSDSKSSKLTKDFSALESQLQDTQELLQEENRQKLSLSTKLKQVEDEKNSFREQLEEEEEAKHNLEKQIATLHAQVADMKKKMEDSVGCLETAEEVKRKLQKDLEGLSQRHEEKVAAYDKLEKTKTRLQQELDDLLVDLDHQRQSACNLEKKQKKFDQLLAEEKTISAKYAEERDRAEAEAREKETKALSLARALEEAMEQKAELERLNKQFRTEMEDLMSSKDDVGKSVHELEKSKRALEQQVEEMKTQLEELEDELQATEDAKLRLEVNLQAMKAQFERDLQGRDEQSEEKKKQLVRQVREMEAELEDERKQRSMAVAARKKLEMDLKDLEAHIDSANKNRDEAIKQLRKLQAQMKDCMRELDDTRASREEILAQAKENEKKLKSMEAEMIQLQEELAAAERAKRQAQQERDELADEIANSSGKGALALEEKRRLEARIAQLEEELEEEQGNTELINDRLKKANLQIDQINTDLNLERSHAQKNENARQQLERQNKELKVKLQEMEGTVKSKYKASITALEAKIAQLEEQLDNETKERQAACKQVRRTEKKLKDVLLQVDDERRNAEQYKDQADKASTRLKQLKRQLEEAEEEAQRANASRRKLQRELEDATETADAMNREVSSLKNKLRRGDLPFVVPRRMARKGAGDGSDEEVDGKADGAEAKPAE", "experiment": "flow cytometry, FITC-labeled antibody at 20 ug/ml on intact MKN45 cells, mean channel number of FL1", "method": "Cultured cells of MKN45 or cells of a solid tumor (hereinafter referred to as “tumor cells”) formed by subcutaneous transplantation of MKN45 were allowed to react with the GAH antibody described in EP-A-520499 and EP-A-1174126, which had been labeled with fluorescein isothiocyanate (FITC: Sigma), in a concentration of 20 μg/ml at 4° C. for 1 hour, and then washed once with phosphate buffered saline (PBS). Analysis was carried out in PBS containing propidium iodide (PI: Sigma) using a flow cytometer (FACScan: Becton Dickinson). PI-positive cells, namely dead cells, were excluded from the subject of analysis by gating operation. By calculating the mean channel number of FL1 as an index of FITC fluorescence intensity, comparison of the cultured cells and tumor cells of MKN45 was carried out.", "data": [{"binder": "B1", "values": [{"measurement": "fold reactivity, tumor cells against cultured cells of MKN45", "result": "~18", "unit": "times"}]}]}
